# B1: αCEA-αPDL1-hyFc-4-1BBL 융합단백질 이량체 (Fc fusion)
# chain: EVQLVESGGGVVQPGRSLRLSCSASGFDFTTYWMSWVRQAPGKGLEWIGEIHPDSSTINYAPSLKDRFTISRDNAKNTLFLQMDSLRPEDTGVYFCASLYFGFPWFAYWGQGTPVTVSSGGGGSGGGGSGGGGSDIQLTQSPSSLSASVGDRVTITCKASQDVGTSVAWYQQKPGKAPKLLIYWTSTRHTGVPSRFSGSGSGTDFTFTISSLQPEDIATYYCQQYSLYRSFGQGTKVEIKGGGGSGGGGSGGGGSGGGGSEVQLLESGGGLVQPGGSLRLSCAASGFTFSSYDMSWVRQAPGKSLEWVATISDAGGYIYYSDSVKGRFTISRDNSKNTLYLQMNSLRAEDTAVYICAREFGKRYALDYWGQGTTVTVSSGGGGSGGGGSGGGGSDIQMTQSPSSLSASVGDRVTITCKASQDVTPAVAWYQQKPGKAPKLLIYSTSSRYTGVPSRFSGSGSGTDFTFTISSLQPEDIATYYCQQHYTTPLTFGQGTKLEIKGGGGSGGGGSGGGGSEPKSCDKTHTCPPCPSHTQPLGVFLFPPKPKDQLMISRTPEVTCVVVDVSQEDPEVQFNWYVDGVEVHNAKTKPREEQFNSTYRVVSVLTVLHQDWLNGKEYKCKVSNKGLPSSIEKTISKAKGQPREPQVYTLPPSQEEMTKNQVSLTCLVKGFYPSDIAVEWESNGQPENNYKTTPPVLDSDGSFFLYSRLTVDKSRWQEGNVFSCSVLHEALHNHYTQKSLSLSLGKGGGGSDPAGLLDLRQGMFAQLVAQNVLLIDGPLSWYSDPGLAGVSLTGGLSYKEDTKELVVAKAGVYYVFFCLELRRVVAGEGSGSVSLALHLQPLRSAAGAAALALTVDLPPASSEARNSAFGFQGRLLHLSAGQRLGVHLHTEARARHAWQLTQGATVLGLFRVCPEIPAGLPSPRSE
# notes: Homodimer by disulfide bonds in the linker; also called IO-129; αCEA-αPDL1-hyFc-h4-1BBL 융합단백질 이량체
# Target: T1, PD-L1 (Programmed death-ligand 1) on MDA-MB-231 cancer cells (UniProt Q9NZQ7 19-290, limits assumed)
# T1 construct: whole, on cells; Endogenous PD-L1 of the MDA-MB-231 cell line
# Assay: concluded from co-culture 4-1BB reporter assay with PD-L1-expressing MDA-MB-231 cells
# T1 sequence (Q9NZQ7 19-290 limits assumed): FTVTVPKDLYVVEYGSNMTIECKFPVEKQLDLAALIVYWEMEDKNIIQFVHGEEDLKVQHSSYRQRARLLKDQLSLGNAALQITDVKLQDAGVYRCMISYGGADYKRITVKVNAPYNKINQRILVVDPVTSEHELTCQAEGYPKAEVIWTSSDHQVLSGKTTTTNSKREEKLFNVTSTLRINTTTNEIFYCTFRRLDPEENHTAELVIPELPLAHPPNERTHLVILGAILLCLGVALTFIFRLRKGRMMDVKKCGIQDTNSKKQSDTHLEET
binder,measurement,value
B1,binding result,binds

# From patent publication KR20210098147A (dated 2021)
